Experimental findings from the supplement of paper PMC5998384 are described below.

For data set [1], the system named is HeLa Kyoto. Nature of the data set: solubility in G1/S (NP-40 vs SDS abundance) (log2 ratio); higher = more soluble. To be noted: cell cycle stage: G1/S.
In data set [2] the test system is HeLa Kyoto. In words: thermal stability score vs G1/S (z-score of summed log2 fold changes over temperatures); higher = more thermally stable than in G1/S.
Data set [3] relates to HeLa Kyoto. In words: solubility change mitosis vs G1/S (difference of NP-40 vs SDS log2 ratios) (log2 ratio difference); higher = more soluble in mitosis.
Data set [4] concerns HeLa Kyoto. Nature of the data set: melting temperature (median over replicates), in situ; higher = more thermally stable.
[5] abbreviates: cell cycle stage: early G1 (4.5 h after nocodazole release).
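For melting temperature (median over replicates), in situ in this document: HeLa Kyoto cells synchronized by double thymidine or nocodazole block, proteins quantified by TMT10plex mass spectrometry, three independent biological replicates.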
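For solubility change mitosis vs G1/S (difference of NP-40 vs SDS log2 ratios) in this document: synchronized HeLa Kyoto cells (double thymidine block for G1/S, nocodazole release for mitosis), protein amounts in NP-40 versus SDS lysates quantified by mass spectrometry, three biological replicates.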
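For solubility in G1/S (NP-40 vs SDS abundance) in this document: HeLa Kyoto cells arrested at G1/S by double thymidine block, proteins quantified by TMT10plex mass spectrometry in mild NP-40 versus SDS extracts, three biological replicates.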
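For thermal stability score vs G1/S (z-score of summed log2 fold changes over temperatures) in this document: synchronized HeLa Kyoto cells, proteins quantified by TMT10plex mass spectrometry, three biological replicates, mitosis taken 0.5 h after nocodazole release, G1/S directly after double thymidine block.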

For the sequence “MSATSVDQRPKGQGNKVSVQNGSIHQKDAVNDDDFEPYLSSQTNQSNSYPPMSDPYMPSYYAPSIGFPYSLGEAAWSTAGDQPMPYLTTYGQMSNGEHHYIPDGVFSQPGALGNTPPFLGQHGFNFFPGNADFSTWGTSGSQGQSTQSSAYSSSYGYPPSSLGRAITDGQAGFGNDTLSKVPGISSIEQGMTGLKIGGDLTAAVTKTVGTALSSSGMTSIATNSVPPVSSAAPKPTSWAAIARKPAKPQPKLKPKGNVGIGGSAVPPPPIKHNMNIGTWDEKGSVVKAPPTQPVLPPQTIIQQPQPLIQPPPLVQSQLPQQQPQPPQPQQQQGPQPQAQPHQVQPQQQQLQNRWVAPRNRGAGFNQNNGAGSENFGLGVVPVSASPSSVEVHPVLEKLKAINNYNPKDFDWNLKNGRVFIIKSYSEDDIHRSIKYSIWCSTEHGNKRLDAAYRSLNGKGPLYLLFSVNGSGHFCGVAEMKSVVDYNAYAGVWSQDKWKGKFEVKWIFVKDVPNNQLRHIRLENNDNKPVTNSRDTQEVPLEKAKQVLKIIATFKHTTSIFDDFAHYEKRQEEEEAMRRERNRNKQ [YTHDF3]”, the “solubility in G1/S (log2)” value in the data set on HeLa Kyoto [1] came out at 0.098. The thermal stability score with HeLa Kyoto [2] (setting [5]) was -0.535; in the data set on HeLa Kyoto [2] (cell cycle stage: mitosis), -3.39. For the same sequence, the “solubility change mitosis (log2)” value in the data set on HeLa Kyoto [3] is -0.0838. Besides, the melting temperature in the data set on HeLa Kyoto [4] (cell cycle stage: G1/S) came to 52.4 °C; in the data set with HeLa Kyoto [4] (cell cycle stage: mitosis), 51.6 °C.
As to “MSCESSMVLGYWDIRGLAHAIRLLLEFTDTSYEEKRYTCGEAPDYDRSQWLDVKFKLDLDFPNLPYLLDGKNKITQSNAILRYIARKHNMCGETEEEKIRVDIIENQVMDFRTQLIRLCYSSDHEKLKPQYLEELPGQLKQFSMFLGKFSWFAGEKLTFVDFLTYDILDQNRIFDPKCLDEFPNLKAFMCRFEALEKIAAYLQSDQFCKMPINNKMAQWGNKPVC [GSTM3]”, in the data set with HeLa Kyoto [1], the “solubility in G1/S (log2)” value stood at 0.0979. The thermal stability score was 1.24 in the data set on HeLa Kyoto [2] (setting [5]) and 3.37 in the data set on HeLa Kyoto [2] (cell cycle stage: mitosis). Besides, the “solubility change mitosis (log2)” value in the data set on HeLa Kyoto [3] is -0.117. The results for the melting temperature with HeLa Kyoto [4] (cell cycle stage: G1/S) and with HeLa Kyoto [4] (cell cycle stage: mitosis) were 47.9 °C and 48.3 °C, respectively.
Consider “MSDDAGDTLATGDKAEVTEMPNSDSLPEDAEVHCDSAAVSHEPTPADPRGEGHENAAVQGAGAAAIGPPVQPQDANALEPPLNGDVTEDTLAECIDSVSLEAEPRSEIPLQEQNYLAVDSPPSGGGWAGWGSWGKSLLSSASATVGHGLTAVKEKAGATLRIHGVNSGSSEGAQPNTENGVPEITDAATDQGPAESPPTSPSSASRGMLSAITNVVQNTGKSVLTGGLDALEFIGKKTMNVLAESDPGFKRTKTLMERTVSLSQMLREAKEKEKQRLAQQLTMERTAHYGMLFDEYQGLSHLEALEILSNESESKVQSFLASLDGEKLELLKNDLISIKDIFAAKELENEENQEEQGLEEKGEEFARMLTELLFELHVAATPDKLNKAMKRAHDWVEEDQTVVSVDVAKVSEEETKKEEKEEKSQDPQEDKKEEKKTKTIEEVYMSSIESLAEVTARCIEQLHKVAELILHGQEEEKPAQDQAKVLIKLTTAMCNEVASLSKKFTNSLTTVGSNKKAEVLNPMISSVLLEGCNSTTYIQDAFQLLLPVLQVSHIQTSCLKAQP [FAM114A1]”, for which the “solubility in G1/S (log2)” value in the data set with HeLa Kyoto [1] was 0.474. Besides, the thermal stability score with HeLa Kyoto [2] (setting [5]) is 0.444; with HeLa Kyoto [2] (cell cycle stage: mitosis), 0.327. For the same sequence, the “solubility change mitosis (log2)” value with HeLa Kyoto [3] was -0.158. The melting temperature in the data set with HeLa Kyoto [4] (cell cycle stage: G1/S) came out at 52.9 °C; in the data set on HeLa Kyoto [4] (cell cycle stage: mitosis), 53.1 °C.
As to “MSDNQSWNSSGSEEDPETESGPPVERCGVLSKWTNYIHGWQDRWVVLKNNALSYYKSEDETEYGCRGSICLSKAVITPHDFDECRFDISVNDSVWYLRAQDPDHRQQWIDAIEQHKTESGYGSESSLRRHGSMVSLVSGASGYSATSTSSFKKGHSLREKLAEMETFRDILCRQVDTLQKYFDACADAVSKDELQRDKVVEDDEDDFPTTRSDGDFLHSTNGNKEKLFPHVTPKGINGIDFKGEAITFKATTAGILATLSHCIELMVKREDSWQKRLDKETEKKRRTEEAYKNAMTELKKKSHFGGPDYEEGPNSLINEEEFFDAVEAALDRQDKIEEQSQSEKVRLHWPTSLPSGDAFSSVGTHRFVQKPYSRSSSMSSIDLVSASDDVHRFSSQVEEMVQNHMTYSLQDVGGDANWQLVVEEGEMKVYRREVEENGIVLDPLKATHAVKGVTGHEVCNYFWNVDVRNDWETTIENFHVVETLADNAIIIYQTHKRVWPASQRDVLYLSVIRKIPALTENDPETWIVCNFSVDHDSAPLNNRCVRAKINVAMICQTLVSPPEGNQEISRDNILCKITYVANVNPGGWAPASVLRAVAKREYPKFLKRFTSYVQEKTAGKPILF [COL4A3BP]”, the “solubility in G1/S (log2)” value in the data set on HeLa Kyoto [1] stood at 0.0115. For the same sequence, the results for the thermal stability score with HeLa Kyoto [2] (setting [5]) and in the data set with HeLa Kyoto [2] (cell cycle stage: mitosis) were -0.469 and -0.153, respectively. The “solubility change mitosis (log2)” value in the data set on HeLa Kyoto [3] was -0.167. Further, the melting temperature was found to be 50.2 °C in the data set with HeLa Kyoto [4] (cell cycle stage: G1/S) and 50.1 °C in the data set with HeLa Kyoto [4] (cell cycle stage: mitosis).
Consider “MSDSGEQNYGERESRSASRSGSAHGSGKSARHTPARSRSKEDSRRSRSKSRSRSESRSRSRRSSRRHYTRSRSRSRSHRRSRSRSYSRDYRRRHSHSHSPMSTRRRHVGNRANPDPNCCLGVFGLSLYTTERDLREVFSKYGPIADVSIVYDQQSRRSRGFAFVYFENVDDAKEAKERANGMELDGRRIRVDFSITKRPHTPTPGIYMGRPTYGSSRRRDYYDRGYDRGYDDRDYYSRSYRGGGGGGGGWRAAQDRDQIYRRRSPSPYYSRGGYRSRSRSRSYSPRRY [TRA2B]”, for which, in the data set on HeLa Kyoto [1], the “solubility in G1/S (log2)” value was -1.17. In addition, the thermal stability score in the data set with HeLa Kyoto [2] (setting [5]) was -1.69; with HeLa Kyoto [2] (cell cycle stage: mitosis) it was -4.47. Besides, the “solubility change mitosis (log2)” value in the data set on HeLa Kyoto [3] worked out at 0.613. The melting temperature in the data set with HeLa Kyoto [4] (cell cycle stage: G1/S) came out at 49.9 °C; in the data set with HeLa Kyoto [4] (cell cycle stage: mitosis) it was 49.8 °C.
